Test results: publication PMC3792637 (Chembiochem, 2013)

Legend:
[1] = molecular target: T1, S. aureus NAL (N-acetylneuraminic acid lyase) (Staphylococcus aureus, UniProt Q2G160); assay: X-ray crystal structure, soak; type: binding; details: covalent Schiff base with Lys165; 100 mM sodium pyruvate soak
T1 sequence (Q2G160 1-293): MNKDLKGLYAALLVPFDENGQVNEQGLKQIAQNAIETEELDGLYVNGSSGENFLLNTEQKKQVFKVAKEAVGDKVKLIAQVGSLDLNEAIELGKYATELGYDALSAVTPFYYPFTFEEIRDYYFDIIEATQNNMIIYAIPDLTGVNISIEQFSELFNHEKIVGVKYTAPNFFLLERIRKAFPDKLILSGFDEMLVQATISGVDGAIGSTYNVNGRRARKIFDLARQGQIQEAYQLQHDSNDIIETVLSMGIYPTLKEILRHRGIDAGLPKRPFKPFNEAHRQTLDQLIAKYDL

[2] = molecular target: K165-γ-thialysine S. aureus N-acetylneuraminic acid lyase (Staphylococcus aureus NCTC 8325) (UniProt Q2G160); assay: crystal structure
[3] = molecular target: K165C variant of S. aureus N-acetylneuraminic acid lyase (Staphylococcus aureus NCTC 8325) (UniProt Q2G160); assay: crystal structure

With `CC(=O)C(=O)O` [pyruvate] the “X-ray crystal structure, soak” value [1] was “the structure of the enzyme–pyruvate complex (PDB ID: 4AH7) was also determined”.
“K165-γ-thialysine S. aureus N-acetylneuraminic acid lyase (from UniProt Q2G160 1-293) (enzyme)” showed a stoichiometry N [2] of 4.
Compound “K165C variant of S. aureus N-acetylneuraminic acid lyase (from UniProt Q2G160 2-293) (enzyme)” has a stoichiometry N [3] of 4.
